From US20250262210A1 (TRUSTEES OF COLUMBIA UNIVERSITY IN THE CITY OF NEW YORK, published 2025) come the findings set out here.

Positions count from the first letter of the chain named.

For one test, the target named is T1, LZTR1 R810W-FLAG (human, UniProt Q8N653 1-840).
T1 construct: Stably expressed in U87 cells by lentivirus; also called LZTR1-FLAG-R810W; LZTR1 RW; not shown: FLAG tag
T1 sequence (looked up): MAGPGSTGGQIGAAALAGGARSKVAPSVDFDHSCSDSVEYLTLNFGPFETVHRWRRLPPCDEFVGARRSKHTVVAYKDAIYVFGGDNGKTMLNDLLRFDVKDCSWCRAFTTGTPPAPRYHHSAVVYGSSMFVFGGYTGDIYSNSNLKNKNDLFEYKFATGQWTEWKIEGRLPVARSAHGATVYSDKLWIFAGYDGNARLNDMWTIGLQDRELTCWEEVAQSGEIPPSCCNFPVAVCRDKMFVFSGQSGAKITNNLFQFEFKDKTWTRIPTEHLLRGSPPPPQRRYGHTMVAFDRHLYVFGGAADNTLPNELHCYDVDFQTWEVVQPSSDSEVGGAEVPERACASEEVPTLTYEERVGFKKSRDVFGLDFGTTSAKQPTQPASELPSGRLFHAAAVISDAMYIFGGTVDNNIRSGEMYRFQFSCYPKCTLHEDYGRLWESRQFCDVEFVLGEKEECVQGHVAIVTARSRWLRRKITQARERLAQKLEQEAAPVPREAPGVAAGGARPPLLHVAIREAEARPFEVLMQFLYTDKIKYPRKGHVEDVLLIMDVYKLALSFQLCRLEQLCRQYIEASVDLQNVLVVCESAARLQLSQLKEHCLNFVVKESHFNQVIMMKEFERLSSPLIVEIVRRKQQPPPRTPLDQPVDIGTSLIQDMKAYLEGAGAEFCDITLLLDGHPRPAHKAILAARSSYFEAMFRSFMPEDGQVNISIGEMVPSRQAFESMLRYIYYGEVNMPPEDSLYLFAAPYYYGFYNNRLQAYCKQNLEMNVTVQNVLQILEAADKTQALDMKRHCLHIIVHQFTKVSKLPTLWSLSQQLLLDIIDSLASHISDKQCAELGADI
The test can be described thus: IP/MS, LZTR1 R810W-FLAG, U87. Summed up:
(§1)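 Extracted peptides in 3% acetonitrile/0.1% formic acid ran on a 50 cm C18 column into an Orbitrap Fusion, with MaxQuant identification and spectral counting.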

The target of the next test is T2, LZTR1-FLAG (human, UniProt Q8N653 1-840).
T2 construct: Expressed in HEK 293T, HeLa or U87 cells; used as cell lysate; also called LZTR1 wild type-FLAG; LZTR1 WT; not shown: FLAG tag at the C-terminus
T2 sequence (looked up): T1 sequence (looked up) with W810R
The test can be described thus: IP/MS, LZTR1 wild type-FLAG, U87. Summed up:
as §1

B1: CY P51A1 (other, human, UniProt Q16850 1-509, looked up)
chain: MAAAAGMLLLGLLQAGGSVLGQAMEKVTGGNLLSMLLIACAFTLSLVYLIRLAAGHLVQLPAGVKSPPYIFSPIPFLGHAIAFGKSPIEFLENAYEKYGPVFSFTMVGKTFTYLLGSDAAALLFNSKNEDLNAEDVYSRLTTPVFGKGVAYDVPNPVFLEQKKMLKSGLNIAHFKQHVSIIEKETKEYFESWGESGEKNVFEALSELIILTASHCLHGKEIRSQLNEKVAQLYADLDGGFSHAAWLLPGWLPLPSFRRRDRAHREIKDIFYKAIQKRRQSQEKIDDILQTLLDATYKDGRPLTDDEVAGMLIGLLLAGQHTSSTTSAWMGFFLARDKTLQKKCYLEQKTVCGENLPPLTYDQLKDLNLLDRCIKETLRLRPPIMIMMRMARTPQTVAGYTIPPGHQVCVSPTVNQRLKDSWVERLDFNPDRYLQDNPASGEKFAYVPFGAGRHRCIGENFAYVQIKTIWSTMLRLYEFDLIDGYFPTVNYTTMIHTPENPVIRYKRRSK
notes: Printed as CY P51A1; read as CYP51A1
Take B1: the binding result with LZTR1 R810W-FLAG and in the test with LZTR1-FLAG was “binds” throughout.

B2: ELAC2 (other, human, UniProt Q9BQ52 17-826, looked up)
chain: SQGRTISQAPARRERPRKDPLRHLRTREKRGPSGCSGGPNTVYLQVVAAGSRDSGAALYVFSEFNRYLFNCGEGVQRLMQEHKLKVARLDNIFLTRMHWSNVGGLSGMILTLKETGLPKCVLSGPPQLEKYLEAIKIFSGPLKGIELAVRPHSAPEYEDETMTVYQIPIHSEQRRGKHQPWQSPERPLSRLSPERSSDSESNENEPHLPHGVSQRRGVRDSSLVVAFICKLHLKRGNFLVLKAKEMGLPVGTAAIAPIIAAVKDGKSITHEGREILAEELCTPPDPGAAFVVVECPDESFIQPICENATFQRYQGKADAPVALVVHMAPASVLVDSRYQQWMERFGPDTQHLVLNENCASVHNLRSHKIQTQLNLIHPDIFPLLTSFRCKKEGPTLSVPMVQGECLLKYQLRPRREWQRDAIITCNPEEFIVEALQLPNFQQSVQEYRRSAQDGPAPAEKRSQYPEIIFLGTGSAIPMKIRNVSATLVNISPDTSLLLDCGEGTFGQLCRHYGDQVDRVLGTLAAVFVSHLHADHHTGLPSILLQRERALASLGKPLHPLLVVAPNQLKAWLQQYHNQCQEVLHHISMIPAKCLQEGAEISSPAVERLISSLLRTCDLEEFQTCLVRHCKHAFGCALVHTSGWKVVYSGDTMPCEALVRMGKDATLLIHEATLEDGLEEEAVEKTHSTTSQAISVGMRMNAEFIMLNHFSQRYAKVPLFSPNFSEKVGVAFDHMKVCFGDFPTMPKLIPPLKALFAGDIEEMEERREKRELRQVRAALLSRELAGGLEDGEPQQKRAHTEEPQAKKVRAQ
Turning to B2, the binding result with LZTR1 R810W-FLAG and with LZTR1-FLAG was “binds” throughout.

B3: DHX32 (other, human, UniProt Q7L7V1 1-743, looked up)
chain: MEEEGLECPNSSSEKRYFPESLDSSDGDEEEVLACEDLELNPFDGLPYSSRYYKLLKEREDLPIWKEKYSFMENLLQNQIVIVSGDAKCGKSAQVPQWCAEYCLSIHYQHGGVICTQVHKQTVVQLALRVADEMDVNIGHEVGYVIPFENCCTNETILRYCTDDMLQREMMSNPFLGSYGVIILDDIHERSIATDVLLGLLKDVLLARPELKLIINSSPHLISKLNSYYGNVPVIEVKNKHPVEVVYLSEAQKDSFESILRLIFEIHHSGEKGDIVVFLACEQDIEKVCETVYQGSNLNPDLGELVVVPLYPKEKCSLFKPLDETEKRCQVYQRRVVLTTSSGEFLIWSNSVRFVIDVGVERRKVYNPRIRANSLVMQPISQSQAEIRKQILGSSSSGKFFCLYTEEFASKDMTPLKPAEMQEANLTSMVLFMKRIDIAGLGHCDFMNRPAPESLMQALEDLDYLAALDNDGNLSEFGIIMSEFPLDPQLSKSILASCEFDCVDEVLTIAAMVTAPNCFSHVPHGAEEAALTCWKTFLHPEGDHFTLISIYKAYQDTTLNSSSEYCVEKWCRDYFLNCSALRMADVIRAELLEIIKRIELPYAEPAFGSKENTLNIKKALLSGYFMQIARDVDGSGNYLMLTHKQVAQLHPLSGYSITKKMPEWVLFHKFSISENNYIRITSEISPELFMQLVPQYYFSNLPPSESKDILQQVVDHLSPVSTMNKEQQMCETCPETEQRCTLQ
Turning to B3, the binding result with LZTR1 R810W-FLAG and in the test with LZTR1-FLAG was “binds” throughout.
